In patent US20040005636A1, “Method for obtaining the binding affinities of a peptide library to a protein” (priority 2002, published 2004):
Ends that are not written are not given here. Peptide text beside a SMILES is read from it. * marks the point of attachment. Fluorescein(5-NHCOCH2) = O=C(C*)Nc1ccc2c(c1)C(=O)OC21c2ccc(O)cc2Oc2cc(O)ccc21

T1: hTRβ-LBD (ligand binding domain of thyroid hormone receptor β) (human, UniProt P10828 202-461)
T1 construct: Assayed with the small-molecule ligand T3 present
T1 sequence (looked up): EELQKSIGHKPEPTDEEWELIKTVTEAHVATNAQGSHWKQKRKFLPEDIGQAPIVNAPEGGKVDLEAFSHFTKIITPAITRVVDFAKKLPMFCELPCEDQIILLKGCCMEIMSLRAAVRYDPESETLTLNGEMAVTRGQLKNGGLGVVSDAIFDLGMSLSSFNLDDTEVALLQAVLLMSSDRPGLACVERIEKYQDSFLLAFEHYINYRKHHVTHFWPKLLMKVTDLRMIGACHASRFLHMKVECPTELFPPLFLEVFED

T2: hERα-LBD (Homo sapiens, UniProt P03372)
T2 construct: The receptor ERα-LBD or TRβ-LBD, expressed using reported protocols; made in house
T2 sequence (P03372 311-547 limits assumed): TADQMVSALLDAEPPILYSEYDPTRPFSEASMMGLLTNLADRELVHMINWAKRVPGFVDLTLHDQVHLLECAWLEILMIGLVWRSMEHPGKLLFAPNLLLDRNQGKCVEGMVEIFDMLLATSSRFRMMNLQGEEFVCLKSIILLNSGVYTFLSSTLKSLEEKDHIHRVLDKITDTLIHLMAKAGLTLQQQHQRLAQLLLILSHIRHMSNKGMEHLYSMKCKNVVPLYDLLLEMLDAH

T3: hERα-LBD (ligand binding domain of estrogen receptor α) (human, UniProt P03372 297-554)
T3 construct: Assayed with estradiol, diethylstilbestrol, genistein or tamoxifen present; the ligand is named under assay in each row
T3 sequence (looked up): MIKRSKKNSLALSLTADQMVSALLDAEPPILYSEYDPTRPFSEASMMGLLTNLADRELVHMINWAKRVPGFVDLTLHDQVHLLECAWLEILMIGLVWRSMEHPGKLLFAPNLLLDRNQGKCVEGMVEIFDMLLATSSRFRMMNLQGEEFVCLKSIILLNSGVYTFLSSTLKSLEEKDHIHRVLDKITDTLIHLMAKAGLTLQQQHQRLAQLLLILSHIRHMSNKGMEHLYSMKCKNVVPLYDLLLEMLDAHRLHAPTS


Target: T1, hTRβ-LBD (ligand binding domain of …)
Assay: fluorescence polarization, hTRβ-LBD titrated, T3 present; Table 3 prints >AL (assay limits) for this pair
Conditions: not given
Description: (§1) The concentration of protein varied between 0.001-20 μM in the following way. In 96 well plates, hTRβ-LBD or hERα-LBD was serially diluted from 40 μM to 0.002 μM in binding buffer (50 mM Sodium Phosphate, 150 mM NaCl, pH 7.2, 1 mM DTT, 1 mM EDTA, 0.01% NP40, 10% glycerol), containing 200 μM ligand (T₃, for TRβ, or estradiol, diethylstilbestrol, genistein or tamoxifen for ERα).
(§2) Subsequently 10 μL of diluted protein was added to 10 μL of fluorescent coregulator peptide (20 nM) in 384-well plates yielding final protein concentrations of […] and 10 nM fluorescent peptide concentration. The samples were allowed to equilibriate for 30 minutes. Binding was then measured using fluorescence polarization (excitation λ at 485 nm, emission λ at 530 nm) on an Analyst AD (available from Molecular Devices).
(§3) All experiments were carried out in quadruplicate, with each iteration containing the positive and negative controls, and 10-12 dose points. The data were then fit using Klotz plots to determine IC₅₀ values using nonlinear regression analysis that fits the data to a modification of the model of Heyduk and Lee. (Heyduk et al., Proc. Natl. Acad. Sci., (1990), 1774; Heyduk et al., Nature, (1993), 364, 6437; Heyduk et al., Methods Enzymol., 274, 492. Further analysis was conducted using Hill and Scatchard plots to confirm number and homogeneity of binding sites as discussed hereinbelow.

| Kd [µM] | Molecule |
| --- | --- |
| 100 | C(5‑iodoacetamidofluorescein)YSQTSHKLVQLLTTTAEQQ [SRC1-1 coregulator peptide] |
| 100 | C(5‑iodoacetamidofluorescein)ESKDHQLLRYLLDKDEKDL [SRC1-3 coregulator peptide] |
| 100 | C(5‑iodoacetamidofluorescein)LQEKHRILHKLLQNGNSPA [SRC3-2 coregulator peptide] |
| 100 | C(5‑iodoacetamidofluorescein)DSKGQTKLLQLLTTKSDQM [SRC2-1 coregulator peptide] |

Target: T2, hERα-LBD
Assay: Fluorescence polarization assay of coregulator peptide binding to ERα-LBD
Conditions: ERα-LBD in the presence of estradiol; read-out: Dissociation constant for ERα, Estradiol
Description: The peptide library synthesized in Example 1 was assayed with ERα or TRβ receptor. Library members were kept at a constant concentration of 10 nM. A ligand was optionally added to the nuclear hormone receptor.
as §1, with “The receptor ERα-LBD or TRβ-LBD, expressed using reported protocols (for TR see, e.g., Darimont et al., Genes Dev., 12(21):3343-56, (1998); and for ER, see, e.g., Shiau et al., Cell, (1998), 95(7):927-937), was used. The” for “The”, “(T3,” for “(T₃,”
as §2
as §3, with “IC50” for “IC₅₀”
FIG. 6 illustrates direct binding of SRC2-2 to ERα-LBD in the presence of the ligands estradiol, diethylstilbestrol and genistein. […] Measured dissociation constants for binding of members of the SRC peptide library to ERα, in the presence of 3 different ligands, are illustrated in Table 4 wherein the binding units are μM. Table 5 illustrates a comparison of binding constants (μM) for SRC peptides with the TRβ receptor in the presence of thyroid hormone T3, and the ERα receptor in the presence of estradiol.

| Kd [µM] | Molecule |
| --- | --- |
| 1.21 | CC(C)C[C@H](NC(=O)[C@H](CCC(N)=O)NC(=O)[C@@H](NC(=O)[C@H](CC(C)C)NC(=O)[C@H](CCCCN)NC(=O)[C@H](Cc1c[nH]cn1)NC(=O)[C@H](CO)NC(=O)[C@@H](NC(=O)[C@H](CCC(N)=O)NC(=O)[C@H](CO)NC(=O)[C@H](Cc1ccc(O)cc1)NC(=O)[C@@H](N)CSCC(=O)Nc1ccc2c(c1)C(=O)OC21c2ccc(O)cc2Oc2cc(O)ccc21)[C@@H](C)O)C(C)C)C(=O)N[C@@H](CC(C)C)C(=O)N[C@H](C(=O)N[C@H](C(=O)N[C@H](C(=O)N[C@@H](C)C(=O)N[C@@H](CCC(=O)O)C(=O)N[C@@H](CCC(N)=O)C(=O)N[C@@H](CCC(N)=O)C(=O)O)[C@@H](C)O)[C@@H](C)O)[C@@H](C)O [SRC1-1] (H-C(Fluorescein(5-NHCOCH2))YSQTSHKLVQLLTTTAEQQ-OH) |
| 2.54 | CC(C)C[C@H](NC(=O)[C@H](CC(=O)O)NC(=O)[C@H](CCCCN)NC(=O)[C@H](CCC(=O)O)NC(=O)[C@H](CC(=O)O)NC(=O)[C@H](CCCCN)NC(=O)[C@H](CC(=O)O)NC(=O)[C@H](CC(C)C)NC(=O)[C@H](CC(C)C)NC(=O)[C@H](Cc1ccc(O)cc1)NC(=O)[C@H](CCCNC(=N)N)NC(=O)[C@H](CC(C)C)NC(=O)[C@H](CC(C)C)NC(=O)[C@H](CCC(N)=O)NC(=O)[C@H](Cc1c[nH]cn1)NC(=O)[C@H](CC(=O)O)NC(=O)[C@H](CCCCN)NC(=O)[C@H](CO)NC(=O)[C@H](CCC(=O)O)NC(=O)[C@@H](N)CSCC(=O)Nc1ccc2c(c1)C(=O)OC21c2ccc(O)cc2Oc2cc(O)ccc21)C(=O)O [SRC1-3] |
| 0.363 | CC[C@H](C)[C@H](NC(=O)[C@H](CCCNC(=N)N)NC(=O)[C@H](Cc1c[nH]cn1)NC(=O)[C@H](CCCCN)NC(=O)[C@H](CCC(=O)O)NC(=O)[C@H](CCC(N)=O)NC(=O)[C@H](CC(C)C)NC(=O)[C@@H](N)CSCC(=O)Nc1ccc2c(c1)C(=O)OC21c2ccc(O)cc2Oc2cc(O)ccc21)C(=O)N[C@@H](CC(C)C)C(=O)N[C@@H](Cc1c[nH]cn1)C(=O)N[C@@H](CCCCN)C(=O)N[C@@H](CC(C)C)C(=O)N[C@@H](CC(C)C)C(=O)N[C@@H](CCC(N)=O)C(=O)N[C@@H](CC(N)=O)C(=O)NCC(=O)N[C@@H](CC(N)=O)C(=O)N[C@@H](CO)C(=O)N1CCC[C@H]1C(=O)N[C@@H](C)C(=O)O [SRC3-2] (H-C(Fluorescein(5-NHCOCH2))LQEKHRILHKLLQNGNSPA-OH) |
| 0.927 | CSCC[C@H](NC(=O)[C@H](CCC(N)=O)NC(=O)[C@H](CC(=O)O)NC(=O)[C@H](CO)NC(=O)[C@H](CCCCN)NC(=O)[C@@H](NC(=O)[C@@H](NC(=O)[C@H](CC(C)C)NC(=O)[C@H](CC(C)C)NC(=O)[C@H](CCC(N)=O)NC(=O)[C@H](CC(C)C)NC(=O)[C@H](CC(C)C)NC(=O)[C@H](CCCCN)NC(=O)[C@@H](NC(=O)[C@H](CCC(N)=O)NC(=O)CNC(=O)[C@H](CCCCN)NC(=O)[C@H](CO)NC(=O)[C@H](CC(=O)O)NC(=O)[C@@H](N)CSCC(=O)Nc1ccc2c(c1)C(=O)OC21c2ccc(O)cc2Oc2cc(O)ccc21)[C@@H](C)O)[C@@H](C)O)[C@@H](C)O)C(=O)O [SRC2-1] (H-C(Fluorescein(5-NHCOCH2))DSKGQTKLLQLLTTKSDQM-OH) |

Target: T3, hERα-LBD (ligand binding domain of …)
Assay: fluorescence polarization, labelled peptide 10 nM, hERα-LBD titrated, genistein present
Conditions: not given
Description: as §1, §2, §3

| Molecule | Kd [µM] |
| --- | --- |
| C(5‑iodoacetamidofluorescein)ESKDHQLLRYLLDKDEKDL [SRC1-3 coregulator peptide] | 2.55 |
| C(5‑iodoacetamidofluorescein)LTARHKILHRLLQEGSPSD [SRC1-2 coregulator peptide] | 0.298 |
| C(5‑iodoacetamidofluorescein)LQEKHRILHKLLQNGNSPA [SRC3-2 coregulator peptide] | 1.03 |
| C(5‑iodoacetamidofluorescein)DSKGQTKLLQLLTTKSDQM [SRC2-1 coregulator peptide] | 2.6 |

Next, values leading:

| Kd [µM] | Molecule |
| --- | --- |
| 5 | C(5‑iodoacetamidofluorescein)YSQTSHKLVQLLTTTAEQQ [SRC1-1 coregulator peptide] |
| 0.569 | CLKEKHKILHRLLQDSSSPV (5-iodoacetamidofluorescein coupled to the amino terminal cysteine, also called SRC2-2 peptide) [SRC2-2 coregulator peptide] |

Target: T3, hERα-LBD (ligand binding domain of …)
Assay: fluorescence polarization, labelled peptide 10 nM, hERα-LBD titrated, diethylstilbestrol present
Conditions: not given
Description: as §1, §2, §3

| Molecule | Kd [µM] |
| --- | --- |
| C(5‑iodoacetamidofluorescein)ESKDHQLLRYLLDKDEKDL [SRC1-3 coregulator peptide] | 1.46 |
| C(5‑iodoacetamidofluorescein)LTARHKILHRLLQEGSPSD [SRC1-2 coregulator peptide] | 0.302 |
| C(5‑iodoacetamidofluorescein)LQEKHRILHKLLQNGNSPA [SRC3-2 coregulator peptide] | 0.415 |
| C(5‑iodoacetamidofluorescein)DSKGQTKLLQLLTTKSDQM [SRC2-1 coregulator peptide] | 0.896 |

Continued, values first:

| Kd [µM] | Molecule |
| --- | --- |
| 0.853 | C(5‑iodoacetamidofluorescein)YSQTSHKLVQLLTTTAEQQ [SRC1-1 coregulator peptide] |
| 0.277 | CLKEKHKILHRLLQDSSSPV (5-iodoacetamidofluorescein coupled to the amino terminal cysteine, also called SRC2-2 peptide) [SRC2-2 coregulator peptide] |
